molecular target: 8xHis-tagged Teneurin-2 extracellular domain (Ten2^ECD-His) (UniProt Q9NT68 401-2774, HA/Flag epitopes left out; isoform assumed; signal peptide removed and GPS autoproteolysis expected)

| Kd [nM] | Binder |
| --- | --- |
| 1.06 | Latrophilin-3 ADHD-related variant R465S (Lphn3^R465S) (receptor) MWPSQLLIFMMLLAPIIHAFSRAPIPMAVVRRELSCESYPIELRCPGTDVIMIESANYGRTDDKICDSDPAQMENIRCYLPDAYKIMSQRCNNRTQCAVVAGPDVFPDPCPGTYKYLEVQYECVPYKVEQKVFLCPGLLKGVYQSEHLFESDHQSGAWCKDPLQASDKIYYMPWTPYRTDTLTEYSSKDDFIAGRPTTTYKLPHRVDGTGFVVYDGALFFNKERTRNIVKFDLRTRIKSGEAIIANANYHDTSPYRWGGKSDIDLAVDENGLWVIYATEQNNGKIVISQLNPYTLRIEGTWDTAYDKRSASNAFMICGILYVVKSVYEDDDNEATGNKIDYIYNTDQSKDSLVDVPFPNSYQYIAAVDYNPRDNLLYVWNNYHVVKYSLDFGPLDSRSGQAHHGQVSYISPPIHLDSELERPSVKDISTTGPLGMGSTTTSTTLRTTTLSPGRSTTPSVSGRRNSSTSTPSPAVEVLDDMTTHLPSASSQIPALEESCEAVEAREIMWFKTRQGQIAKQPCPAGTIGVSTYLCLAPDGIWDPQGPDLSNCSSPWVNHITQKLKSGETAANIARELAEQTRNHLNAGDITYSVRAMDQLVGLLDVQLRNLTPGGKDSAARSLNKLQKRERSCRAYVQAMVETVNNLLQPQALNAWRDLTTSDQLRAATMLLHTVEESAFVLADNLLKTDIVRENTDNIKLEVARLSTEGNLEDLKFPENMGHGSTIQLSANTLKQNGRNGEIRVAFVLYNNLGPYLSTENASMKLGTEALSTNHSVIVNSPVITAAINKEFSNKVYLADPVVFTVKHIKQSEENFNPNCSFWSYSKRTMTGYWSTQGCRLLTTNKTHTTCSCNHLTNFAVLMAHVEVKHSDAVHDLLLDVITWVGILLSLVCLLICIFTFCFFRGLQSDRNTIHKNLCISLFVAELLFLIGINRTDQPIACAVFAALLHFFFLAAFTWMFLEGVQLYIMLVEVFESEHSRRKYFYLVGYGMPALIVAVSAAVDYRSYGTDKVCWLRLDTYFIWSFIGPATLIIMLNVIFLGIALYKMFHHTAILKPESGCLDNINYEDNRPFIKSWVIGAIALLCLLGLTWAFGLMYINESTVIMAYLFTIFNSLQGMFIFIFHCVLQKKVRKEYGKCLRTHCCSGKSTESSIGSGKTSGSRTPGRYSTGSQSRIRRMWNDTVRKQSESSFITGDINSSASLNREPYRETSMGVKLNIAYQIGASEQCQGYKCHGYSTTEW |
| 0.756 | Latrophilin-3 ADHD-related variant T783M (Lphn3^T783M) (receptor) MWPSQLLIFMMLLAPIIHAFSRAPIPMAVVRRELSCESYPIELRCPGTDVIMIESANYGRTDDKICDSDPAQMENIRCYLPDAYKIMSQRCNNRTQCAVVAGPDVFPDPCPGTYKYLEVQYECVPYKVEQKVFLCPGLLKGVYQSEHLFESDHQSGAWCKDPLQASDKIYYMPWTPYRTDTLTEYSSKDDFIAGRPTTTYKLPHRVDGTGFVVYDGALFFNKERTRNIVKFDLRTRIKSGEAIIANANYHDTSPYRWGGKSDIDLAVDENGLWVIYATEQNNGKIVISQLNPYTLRIEGTWDTAYDKRSASNAFMICGILYVVKSVYEDDDNEATGNKIDYIYNTDQSKDSLVDVPFPNSYQYIAAVDYNPRDNLLYVWNNYHVVKYSLDFGPLDSRSGQAHHGQVSYISPPIHLDSELERPSVKDISTTGPLGMGSTTTSTTLRTTTLSPGRSTTPSVSGRRNRSTSTPSPAVEVLDDMTTHLPSASSQIPALEESCEAVEAREIMWFKTRQGQIAKQPCPAGTIGVSTYLCLAPDGIWDPQGPDLSNCSSPWVNHITQKLKSGETAANIARELAEQTRNHLNAGDITYSVRAMDQLVGLLDVQLRNLTPGGKDSAARSLNKLQKRERSCRAYVQAMVETVNNLLQPQALNAWRDLTTSDQLRAATMLLHTVEESAFVLADNLLKTDIVRENTDNIKLEVARLSTEGNLEDLKFPENMGHGSTIQLSANTLKQNGRNGEIRVAFVLYNNLGPYLSTENASMKLGTEALSTNHSVIVNSPVIMAAINKEFSNKVYLADPVVFTVKHIKQSEENFNPNCSFWSYSKRTMTGYWSTQGCRLLTTNKTHTTCSCNHLTNFAVLMAHVEVKHSDAVHDLLLDVITWVGILLSLVCLLICIFTFCFFRGLQSDRNTIHKNLCISLFVAELLFLIGINRTDQPIACAVFAALLHFFFLAAFTWMFLEGVQLYIMLVEVFESEHSRRKYFYLVGYGMPALIVAVSAAVDYRSYGTDKVCWLRLDTYFIWSFIGPATLIIMLNVIFLGIALYKMFHHTAILKPESGCLDNINYEDNRPFIKSWVIGAIALLCLLGLTWAFGLMYINESTVIMAYLFTIFNSLQGMFIFIFHCVLQKKVRKEYGKCLRTHCCSGKSTESSIGSGKTSGSRTPGRYSTGSQSRIRRMWNDTVRKQSESSFITGDINSSASLNREPYRETSMGVKLNIAYQIGASEQCQGYKCHGYSTTEW |
| 0.896 | Latrophilin-3 ADHD-related variant D615N (Lphn3^D615N) (receptor) MWPSQLLIFMMLLAPIIHAFSRAPIPMAVVRRELSCESYPIELRCPGTDVIMIESANYGRTDDKICDSDPAQMENIRCYLPDAYKIMSQRCNNRTQCAVVAGPDVFPDPCPGTYKYLEVQYECVPYKVEQKVFLCPGLLKGVYQSEHLFESDHQSGAWCKDPLQASDKIYYMPWTPYRTDTLTEYSSKDDFIAGRPTTTYKLPHRVDGTGFVVYDGALFFNKERTRNIVKFDLRTRIKSGEAIIANANYHDTSPYRWGGKSDIDLAVDENGLWVIYATEQNNGKIVISQLNPYTLRIEGTWDTAYDKRSASNAFMICGILYVVKSVYEDDDNEATGNKIDYIYNTDQSKDSLVDVPFPNSYQYIAAVDYNPRDNLLYVWNNYHVVKYSLDFGPLDSRSGQAHHGQVSYISPPIHLDSELERPSVKDISTTGPLGMGSTTTSTTLRTTTLSPGRSTTPSVSGRRNRSTSTPSPAVEVLDDMTTHLPSASSQIPALEESCEAVEAREIMWFKTRQGQIAKQPCPAGTIGVSTYLCLAPDGIWDPQGPDLSNCSSPWVNHITQKLKSGETAANIARELAEQTRNHLNAGDITYSVRAMDQLVGLLDVQLRNLTPGGKNSAARSLNKLQKRERSCRAYVQAMVETVNNLLQPQALNAWRDLTTSDQLRAATMLLHTVEESAFVLADNLLKTDIVRENTDNIKLEVARLSTEGNLEDLKFPENMGHGSTIQLSANTLKQNGRNGEIRVAFVLYNNLGPYLSTENASMKLGTEALSTNHSVIVNSPVITAAINKEFSNKVYLADPVVFTVKHIKQSEENFNPNCSFWSYSKRTMTGYWSTQGCRLLTTNKTHTTCSCNHLTNFAVLMAHVEVKHSDAVHDLLLDVITWVGILLSLVCLLICIFTFCFFRGLQSDRNTIHKNLCISLFVAELLFLIGINRTDQPIACAVFAALLHFFFLAAFTWMFLEGVQLYIMLVEVFESEHSRRKYFYLVGYGMPALIVAVSAAVDYRSYGTDKVCWLRLDTYFIWSFIGPATLIIMLNVIFLGIALYKMFHHTAILKPESGCLDNINYEDNRPFIKSWVIGAIALLCLLGLTWAFGLMYINESTVIMAYLFTIFNSLQGMFIFIFHCVLQKKVRKEYGKCLRTHCCSGKSTESSIGSGKTSGSRTPGRYSTGSQSRIRRMWNDTVRKQSESSFITGDINSSASLNREPYRETSMGVKLNIAYQIGASEQCQGYKCHGYSTTEW |
| 1.15 | Latrophilin-3 ADHD-related variant A247S (Lphn3^A247S) (receptor) MWPSQLLIFMMLLAPIIHAFSRAPIPMAVVRRELSCESYPIELRCPGTDVIMIESANYGRTDDKICDSDPAQMENIRCYLPDAYKIMSQRCNNRTQCAVVAGPDVFPDPCPGTYKYLEVQYECVPYKVEQKVFLCPGLLKGVYQSEHLFESDHQSGAWCKDPLQASDKIYYMPWTPYRTDTLTEYSSKDDFIAGRPTTTYKLPHRVDGTGFVVYDGALFFNKERTRNIVKFDLRTRIKSGEAIIANSNYHDTSPYRWGGKSDIDLAVDENGLWVIYATEQNNGKIVISQLNPYTLRIEGTWDTAYDKRSASNAFMICGILYVVKSVYEDDDNEATGNKIDYIYNTDQSKDSLVDVPFPNSYQYIAAVDYNPRDNLLYVWNNYHVVKYSLDFGPLDSRSGQAHHGQVSYISPPIHLDSELERPSVKDISTTGPLGMGSTTTSTTLRTTTLSPGRSTTPSVSGRRNRSTSTPSPAVEVLDDMTTHLPSASSQIPALEESCEAVEAREIMWFKTRQGQIAKQPCPAGTIGVSTYLCLAPDGIWDPQGPDLSNCSSPWVNHITQKLKSGETAANIARELAEQTRNHLNAGDITYSVRAMDQLVGLLDVQLRNLTPGGKDSAARSLNKLQKRERSCRAYVQAMVETVNNLLQPQALNAWRDLTTSDQLRAATMLLHTVEESAFVLADNLLKTDIVRENTDNIKLEVARLSTEGNLEDLKFPENMGHGSTIQLSANTLKQNGRNGEIRVAFVLYNNLGPYLSTENASMKLGTEALSTNHSVIVNSPVITAAINKEFSNKVYLADPVVFTVKHIKQSEENFNPNCSFWSYSKRTMTGYWSTQGCRLLTTNKTHTTCSCNHLTNFAVLMAHVEVKHSDAVHDLLLDVITWVGILLSLVCLLICIFTFCFFRGLQSDRNTIHKNLCISLFVAELLFLIGINRTDQPIACAVFAALLHFFFLAAFTWMFLEGVQLYIMLVEVFESEHSRRKYFYLVGYGMPALIVAVSAAVDYRSYGTDKVCWLRLDTYFIWSFIGPATLIIMLNVIFLGIALYKMFHHTAILKPESGCLDNINYEDNRPFIKSWVIGAIALLCLLGLTWAFGLMYINESTVIMAYLFTIFNSLQGMFIFIFHCVLQKKVRKEYGKCLRTHCCSGKSTESSIGSGKTSGSRTPGRYSTGSQSRIRRMWNDTVRKQSESSFITGDINSSASLNREPYRETSMGVKLNIAYQIGASEQCQGYKCHGYSTTEW |

— publication PMC9135631 (2022)
